Patent US20260092093A1 (TJ BIOPHARMA SHANGHAI, published 2026)

T1: hIL-18 receptor (hIL-18Rα and hIL-18Rβ) (human, UniProt Q13478 19-541; O95256 20-599)
T1 sequence (looked up) 1: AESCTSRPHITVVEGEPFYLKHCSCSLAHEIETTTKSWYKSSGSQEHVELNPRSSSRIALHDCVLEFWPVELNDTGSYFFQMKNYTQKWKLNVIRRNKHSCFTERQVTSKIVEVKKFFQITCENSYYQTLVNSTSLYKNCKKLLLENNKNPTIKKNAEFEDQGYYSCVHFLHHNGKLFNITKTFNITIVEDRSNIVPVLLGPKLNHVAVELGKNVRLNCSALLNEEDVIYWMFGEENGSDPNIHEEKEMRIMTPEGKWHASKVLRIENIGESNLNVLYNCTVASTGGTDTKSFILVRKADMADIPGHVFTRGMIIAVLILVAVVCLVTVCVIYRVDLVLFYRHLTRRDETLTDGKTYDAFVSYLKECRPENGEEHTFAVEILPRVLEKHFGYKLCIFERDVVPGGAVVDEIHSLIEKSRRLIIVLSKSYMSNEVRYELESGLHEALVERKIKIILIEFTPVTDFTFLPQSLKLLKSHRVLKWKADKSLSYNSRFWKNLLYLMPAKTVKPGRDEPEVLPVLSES
T1 sequence (looked up) 2: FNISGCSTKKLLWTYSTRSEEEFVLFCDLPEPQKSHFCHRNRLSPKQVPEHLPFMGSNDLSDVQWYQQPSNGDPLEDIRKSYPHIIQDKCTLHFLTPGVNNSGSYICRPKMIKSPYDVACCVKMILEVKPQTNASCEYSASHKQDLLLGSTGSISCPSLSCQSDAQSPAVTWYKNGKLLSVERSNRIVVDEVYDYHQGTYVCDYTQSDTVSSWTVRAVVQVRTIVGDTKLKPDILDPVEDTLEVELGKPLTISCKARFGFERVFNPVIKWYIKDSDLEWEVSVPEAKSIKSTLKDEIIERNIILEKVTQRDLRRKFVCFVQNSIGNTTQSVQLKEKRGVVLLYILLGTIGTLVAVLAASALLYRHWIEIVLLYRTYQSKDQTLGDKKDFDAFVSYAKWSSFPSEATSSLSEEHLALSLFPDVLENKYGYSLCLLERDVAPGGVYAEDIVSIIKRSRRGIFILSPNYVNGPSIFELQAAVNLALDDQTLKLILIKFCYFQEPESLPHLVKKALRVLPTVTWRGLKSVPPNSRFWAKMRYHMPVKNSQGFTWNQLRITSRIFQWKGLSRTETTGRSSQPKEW

T2: hIL-18BP-hFc (human, UniProt O95998 31-194, limits assumed)
T2 sequence (looked up): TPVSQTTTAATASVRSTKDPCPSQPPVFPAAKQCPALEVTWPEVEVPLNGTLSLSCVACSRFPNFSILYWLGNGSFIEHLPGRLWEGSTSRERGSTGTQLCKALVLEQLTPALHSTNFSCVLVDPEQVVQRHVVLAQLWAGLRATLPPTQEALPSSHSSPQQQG


What was measured:
Test in all cases: cell-based or functional assay
[1] = target: T1, hIL-18 receptor (hIL-18Rα and hIL-18Rβ)
hIL-18BP-hFc [2] = target: T2, hIL-18BP-hFc
[3] = target: T1, hIL-18 receptor (hIL-18Rα and hIL-18Rβ); remark: listed apart in the source
hIL-18BP-hFc [4] = target: T2, hIL-18BP-hFc; remark: listed apart in the source

Binder	EC50 (nM), hIL-18 reporter assay [1] [nM]	EC50 (nM) in the Presence of 1 µg/mL hIL-18BP-hFc, hIL-18 reporter assay (hIL-18BP-hFc [2]) [nM]	EC50 Fold Change (+BP/-BP), hIL-18 reporter assay (hIL-18BP-hFc [2]) [fold]	EC50 (nM), PBMC assay (hIFNγ release) [3] [nM]	EC50 (nM) in the Presence of 1 µg/mL hIL-18BP-hFc, PBMC assay (hIFNγ release) (hIL-18BP-hFc [4]) [nM]	EC50 Fold Change (+BP/-BP), PBMC assay (hIFNγ release) (hIL-18BP-hFc [4]) [fold]
IL-18 variant polypeptide WM8 (ligand) YFPKLRSKLSVIRNLNDQVLFIDQGNRPLFEDMTDSDCRDNAPRTIFIISMYKDSQPRGMAVTISVKCEKISTLSCENKIISFKEMNPPDSIKDTKSDIIFFQRSVPGHDNKMQFESSSYEGYFLACEKERDLFKLILKKEDELGDRSIMFTVQNED	7	5.2	0.74	0.68	1.02	1.5
IL-18 variant polypeptide M12 (ligand) YFPKLKSKLSVIRNLNDQVLFIDQGNRPLFEDMTDSDCRDNAPRTIFIISMYKGSGARGMAVTISVKCEKISTLSCENKIISFKEMNPPDTIKDTKSDIIFFQRSVPGHDNKMQFESSSYEGYFLACEKERDLFKLILKKEDELGDRSIMFTVQNED	0.04	0.03	0.75	0.043	0.045	1.05
IL-18 variant polypeptide M35 (ligand) YFPKLRSKLSVIRNLNDQVLFIDQGNRPLFEDMTDSDCRDNAPRTIFIISMYKGSGARGMAVTISVKCEKISTLSCENKIISFKEMNPPDGIKDTKSDIIFFQRSVPGHDNKMQFESSSYEGYFLACEKERDLFKLILKKEDELGDRSIMFTVQNED	0.62	0.51	0.82	0.085	0.14	1.65
IL-18 variant polypeptide M11 (ligand) YFPKLRSKLSVIRNLNDQVLFIDQGNRPLFEDMTDSDCRDNAPRTIFIISMYKSSRNRGMAVTISVKCEKISTLSCENKIISFKEMNPPDGIKDTKSDIIFFQTSVPGHDNKMQFESSSYEGYFLACEKERDLFKLILKKEDELGDRSIMFTVQNED	0.13	0.21	1.62	0.044	0.068	1.55
IL-18 variant polypeptide M33 (ligand) YFEKLHSKLSVIRNLNDQVLFIDQGNRPLFEDMTDSDCRDNAPRTIFIISMYKRSTHRGMAVTISVKCEKISTLSCENKIISFKEMNPPDNIKDTKSDIIFFQRSVPGHDNKMQFESSSYEGYFLACEKERDLFKLILKKEDELGDRSIMFTVQNED	18.4	10.7	0.58	0.51	0.35	0.69
IL-18 variant polypeptide MM5 (ligand) YFGKLGSKLSVIRNLNDQVLFIDQGNRPLFEDMTDSDCRDNAPRTIFIISMYKLSTERGMAVTISVKCEKISTLSCENKIISFKEMNPPDGIKDTKSDIIFFQSSVPGHDNKMQFESSSYEGYFLACEKERDLFKLILKKEDELGDRSIMFTVQNED	0.028	0.08	2.86	0.035	0.045	1.29
IL-18 variant polypeptide M36 (ligand) YFPKLSSKLSVIRNLNDQVLFIDQGNRPLFEDMTDSDCRDNAPRTIFIISMYKASDQRGMAVTISVKCEKISTLSCENKIISFKEMNPPDGIKDTKSDIIFFQRSVPGHDNKMQFESSSYEGYFLACEKERDLFKLILKKEDELGDRSIMFTVQNED	3.9	2.5	0.64	1.1	0.8	0.73
